The source of these data is paper PMC3310290.

In this test the target is fibrin (Homo sapiens) (UniProt P02671). As to the kind of experiment: ELISA.

Chain of fibronectin, P02751 (P02751 32-2477): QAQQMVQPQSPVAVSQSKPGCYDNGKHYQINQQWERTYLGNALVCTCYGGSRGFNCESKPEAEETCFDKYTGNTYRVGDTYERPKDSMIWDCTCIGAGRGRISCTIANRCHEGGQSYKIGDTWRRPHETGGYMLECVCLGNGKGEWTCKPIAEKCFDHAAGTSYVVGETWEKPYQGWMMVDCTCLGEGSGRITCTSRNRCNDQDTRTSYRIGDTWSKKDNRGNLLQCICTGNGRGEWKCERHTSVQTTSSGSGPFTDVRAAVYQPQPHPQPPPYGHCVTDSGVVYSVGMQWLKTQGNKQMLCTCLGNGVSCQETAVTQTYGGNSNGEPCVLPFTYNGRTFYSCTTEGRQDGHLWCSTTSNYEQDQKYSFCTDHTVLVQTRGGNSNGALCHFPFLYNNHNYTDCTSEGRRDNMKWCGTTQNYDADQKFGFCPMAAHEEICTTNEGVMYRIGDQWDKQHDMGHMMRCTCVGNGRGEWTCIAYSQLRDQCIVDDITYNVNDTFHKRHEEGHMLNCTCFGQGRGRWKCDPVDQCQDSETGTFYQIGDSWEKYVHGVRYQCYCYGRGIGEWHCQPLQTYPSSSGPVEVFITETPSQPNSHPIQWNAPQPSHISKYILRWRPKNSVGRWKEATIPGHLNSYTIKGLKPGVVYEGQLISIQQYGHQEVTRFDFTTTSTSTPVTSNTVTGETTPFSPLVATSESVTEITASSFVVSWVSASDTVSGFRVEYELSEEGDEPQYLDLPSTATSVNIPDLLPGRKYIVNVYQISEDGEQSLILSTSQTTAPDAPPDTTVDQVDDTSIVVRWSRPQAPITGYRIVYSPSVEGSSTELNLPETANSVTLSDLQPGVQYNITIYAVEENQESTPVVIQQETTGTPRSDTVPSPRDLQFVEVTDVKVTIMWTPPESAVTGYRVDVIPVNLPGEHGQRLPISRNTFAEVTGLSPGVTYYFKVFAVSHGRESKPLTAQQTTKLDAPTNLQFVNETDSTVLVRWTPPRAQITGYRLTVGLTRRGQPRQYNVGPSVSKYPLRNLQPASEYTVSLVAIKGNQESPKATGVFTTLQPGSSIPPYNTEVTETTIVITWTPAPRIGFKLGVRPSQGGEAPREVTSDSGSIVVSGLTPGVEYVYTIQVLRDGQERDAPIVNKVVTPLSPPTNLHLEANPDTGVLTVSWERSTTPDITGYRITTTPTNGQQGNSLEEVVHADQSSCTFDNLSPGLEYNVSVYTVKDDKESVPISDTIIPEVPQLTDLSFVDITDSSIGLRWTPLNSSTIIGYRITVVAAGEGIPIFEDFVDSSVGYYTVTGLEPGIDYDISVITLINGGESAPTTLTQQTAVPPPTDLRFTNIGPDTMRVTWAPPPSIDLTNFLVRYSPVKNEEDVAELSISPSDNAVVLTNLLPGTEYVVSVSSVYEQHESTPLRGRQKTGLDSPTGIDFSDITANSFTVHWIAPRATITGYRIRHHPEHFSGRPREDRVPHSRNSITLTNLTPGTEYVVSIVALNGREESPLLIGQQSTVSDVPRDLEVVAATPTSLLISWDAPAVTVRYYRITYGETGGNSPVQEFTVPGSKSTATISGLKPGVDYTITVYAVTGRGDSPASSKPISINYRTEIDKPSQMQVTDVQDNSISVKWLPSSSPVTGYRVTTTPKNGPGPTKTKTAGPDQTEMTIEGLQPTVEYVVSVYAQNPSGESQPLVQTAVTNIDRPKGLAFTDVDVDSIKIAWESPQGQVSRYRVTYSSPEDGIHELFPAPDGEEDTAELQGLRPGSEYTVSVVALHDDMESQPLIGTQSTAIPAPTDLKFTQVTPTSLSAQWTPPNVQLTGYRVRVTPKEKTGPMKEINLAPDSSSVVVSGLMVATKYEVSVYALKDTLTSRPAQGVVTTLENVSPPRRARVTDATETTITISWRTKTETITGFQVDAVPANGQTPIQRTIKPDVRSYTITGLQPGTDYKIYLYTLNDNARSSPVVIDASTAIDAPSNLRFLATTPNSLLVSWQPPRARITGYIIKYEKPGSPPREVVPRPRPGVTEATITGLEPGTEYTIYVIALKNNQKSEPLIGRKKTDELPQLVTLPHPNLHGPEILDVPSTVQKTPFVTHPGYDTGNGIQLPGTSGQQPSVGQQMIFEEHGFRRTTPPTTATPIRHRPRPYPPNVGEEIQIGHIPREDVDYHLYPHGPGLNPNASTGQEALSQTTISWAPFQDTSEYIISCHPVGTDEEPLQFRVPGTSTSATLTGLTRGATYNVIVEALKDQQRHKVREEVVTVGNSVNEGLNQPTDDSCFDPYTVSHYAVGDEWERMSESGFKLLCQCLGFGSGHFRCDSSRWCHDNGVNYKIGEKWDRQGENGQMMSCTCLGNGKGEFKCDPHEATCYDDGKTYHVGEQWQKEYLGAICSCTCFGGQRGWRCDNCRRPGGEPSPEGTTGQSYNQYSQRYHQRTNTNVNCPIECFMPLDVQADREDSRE

Broadly, the IC50 is the point on the concentration scale where inhibition reaches its midpoint. Substance fibronectin, P02751 had an IC50 of 4.9 nM.
